How the values were obtained:
[1] = biological target: cyclophilin A (CypA), human (UniProt P62937); assay: ITC; recombinant CypA or Nup358Cyp against recombinant CA^NTD, without cyclosporine; done as described in ref. 25
[2] = biological target: Nup358/RanBP2 cyclophilin domain (Nup358Cyp), human (human); assay: as above
[3] = biological target: cyclophilin A (CypA), human (UniProt P62937); assay: ITC

cyclophilin A (CypA), human, sequence (P62937 whole entry, the tested form may be a part): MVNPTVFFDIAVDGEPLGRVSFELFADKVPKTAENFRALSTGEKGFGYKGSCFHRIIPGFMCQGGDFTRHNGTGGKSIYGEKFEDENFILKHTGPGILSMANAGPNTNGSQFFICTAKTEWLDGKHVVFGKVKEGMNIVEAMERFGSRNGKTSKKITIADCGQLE

Substance	Kd [1]	Kd [2]	Kd [3]	other: stoichiometry N [3]	other: ΔH [3]	other: ΔS ((cal/mol)/deg) [3]
HIV-1 capsid N-terminal domain (CA^NTD) mutant N57A (domain or fragment)	7 µM	55 µM	–	–	–	–
HIV-1 NL4.3 capsid N-terminal domain (CA^NTD), wild type P90A	–	–	46 µM	0.8	-2.84 kcal/mol	9.8
HIV-1 NL4.3 capsid N-terminal domain (CA^NTD), wild type N74D	–	–	–	0.8	-9.8 kcal/mol	-10.3
HIV-1 NL4.3 capsid N-terminal domain (CA^NTD), wild type (domain or fragment)	7 µM	16 µM	–	–	–	–
HIV-1 capsid N-terminal domain (CA^NTD) mutant N74D (domain or fragment)	–	95 µM	–	–	–	–

Reference: article PMC3234246
